B1: LRRC45 (parent)
chain: FQTRQEMTSMSAELKMRAIQAEER
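Further: lentivirally expressed fusions sorted by FACS into six bins by GFP to DsRed ratio, PSI derived from sequencing read proportions per bin multiplied by bin number.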

The variants in this data set derive from B1. The data set is described as follows: protein stability index of a GFP-peptide fusion (GPS, HEK-293T) (PSI 1-6); higher = more stable. To be noted: c terminus: a fixed tail appended.
As for FQTRQEMTSMSAHLKMRAIQAEER [E13H], the protein stability index was 3.08.
Regarding FQTRQEMTSMSAQLKMRAIQAEER [E13Q], the protein stability index is 4.04.
As to FQTRQEMTSMSAYLKMRAIQAEER [E13Y], the protein stability index was determined as 2.73.
In the case of FQTRQEMTSMSALLKMRAIQAEER [E13L] it was 3.1; in that of FQTRQEMTSMSASLKMRAIQAEER [E13S], 3.83; in that of FQTRQEMTSMSAILKMRAIQAEER [E13I], 3.21.
In the case of FQTRQEMTSMSAWLKMRAIQAEER [E13W] it was 2.97; in that of FQTRQEMTSMSAPLKMRAIQAEER [E13P], 3.69.
For the variant FQTRQEMTSMSAGLKMRAIQAEER [E13G], the protein stability index is 3.6.
In the case of FQTRQEMTSMSACLKMRAIQAEER [E13C] it was 3.74; in that of FQTRQEMTSMSAALKMRAIQAEER [E13A], 3.62; in that of FQTRQEMTSMSAFLKMRAIQAEER [E13F], 3.1.
On to FQTRQEMTSMSANLKMRAIQAEER [E13N], for which the protein stability index is 3.1.
Take FQTRQEMTSMSAMLKMRAIQAEER [E13M]: the protein stability index turned out to be 3.47.
In the case of FQTRQEMTSMSATLKMRAIQAEER [E13T] it was 3.53; in that of FQTRQEMTSMSARLKMRAIQAEER [E13R], 3.57; in that of FQTRQEMTSMSAKLKMRAIQAEER [E13K], 3.61.
In the case of FQTRQEMTSMSAVLKMRAIQAEER [E13V] it was 3.35; in that of FQTRQEMTSMSADLKMRAIQAEER [E13D], 3.82; in that of FQTRQEMTSMSAELKMFAIQAEER [R17F], 2.84.
In the case of FQTRQEMTSMSAELKMHAIQAEER [R17H] it was 4.09.
On to FQTRQEMTSMSAELKMEAIQAEER [R17E], for which the protein stability index was determined as 4.33.
Turning to FQTRQEMTSMSAELKMGAIQAEER [R17G], the protein stability index was 3.82.
In the case of FQTRQEMTSMSAELKMDAIQAEER [R17D] it was 4.59; in that of FQTRQEMTSMSAELKMAAIQAEER [R17A], 4.34; in that of FQTRQEMTSMSAELKMCAIQAEER [R17C], 4.01.
Take FQTRQEMTSMSAELFMRAIQAEER [K15F]: the protein stability index was 2.97.
In the case of FQTRQEMTSMSAELGMRAIQAEER [K15G] it was 4.2; in that of FQTRQEMTSMSAELHMRAIQAEER [K15H], 4.16.
In the case of FQTRQEMTSMSAELNMRAIQAEER [K15N] it was 4.26.
In the case of FQTRQEMTSMSAELQMRAIQAEER [K15Q] it was 4.12.
With FQTRQEMTSMSAELRMRAIQAEER [K15R], the protein stability index is 4.38.
In the case of FQTRQEMTSMSAELEMRAIQAEER [K15E] it was 4.88.
In the case of FQTRQEMTSMSAELPMRAIQAEER [K15P] it was 4.38; in that of FQTRQEMTSMSAELYMRAIQAEER [K15Y], 3.59; in that of FQTRQEMTSMSAELWMRAIQAEER [K15W], 2.88.
In the case of FQTRQEMTSMSAELDMRAIQAEER [K15D] it was 4.65; in that of FQTRQEMTSMSAELMMRAIQAEER [K15M], 3.26; in that of FQTRQEMTSMSAELVMRAIQAEER [K15V], 3.29.
FQTRQEMTSMSAELCMRAIQAEER [K15C]: the protein stability index stood at 3.86.
As for FQTRQEMTSMSAELSMRAIQAEER [K15S], the protein stability index worked out at 4.23.
In the case of FQTRQEMTSMSAELTMRAIQAEER [K15T] it was 4.01; in that of FQTRQEMTSMSAELLMRAIQAEER [K15L], 3.05.
FQTRQEMTSMSAELAMRAIQAEER [K15A]: the protein stability index turned out to be 4.16.
As for FQTRQEMTSMSAELIMRAIQAEER [K15I], the protein stability index was 3.27.
With FQTRQEMTSASAELKMRAIQAEER [M10A], the protein stability index is 3.84.
In the case of FQTRQEMTSLSAELKMRAIQAEER [M10L] it was 4.27; in that of FQTRQEMTSQSAELKMRAIQAEER [M10Q], 4.21; in that of FQTRQEMTSCSAELKMRAIQAEER [M10C], 2.53.
In the case of FQTRQEMTSPSAELKMRAIQAEER [M10P] it was 4.55; in that of FQTRQEMTSFSAELKMRAIQAEER [M10F], 4.1; in that of FQTRQEMTSGSAELKMRAIQAEER [M10G], 4.34.
For the variant FQTRQEMTSHSAELKMRAIQAEER [M10H], the protein stability index turned out to be 4.12.
In the case of FQTRQEMTSESAELKMRAIQAEER [M10E] it was 3.51.
As for FQTRQEMTSNSAELKMRAIQAEER [M10N], the protein stability index amounted to 4.14.
In the case of FQTRQEMTSISAELKMRAIQAEER [M10I] it was 3.69.
In the case of FQTRQEMTSKSAELKMRAIQAEER [M10K] it was 4.07; in that of FQTRQEMTSWSAELKMRAIQAEER [M10W], 3.07.
Regarding FQTRQEMTSVSAELKMRAIQAEER [M10V], the protein stability index came out at 3.94.
For the variant FQTRQEMTSTSAELKMRAIQAEER [M10T], the protein stability index worked out at 4.28.
For the variant FQTRQEMTSSSAELKMRAIQAEER [M10S], the protein stability index was determined as 4.1.
In the case of FQTRQEMTSDSAELKMRAIQAEER [M10D] it was 3.98.
In the case of FQTRQEMTSRSAELKMRAIQAEER [M10R] it was 4.16; in that of FQTRQEMTSYSAELKMRAIQAEER [M10Y], 3.97.
As for FQTRQEVTSMSAELKMRAIQAEER [M7V], the protein stability index is 3.4.
In the case of FQTRQELTSMSAELKMRAIQAEER [M7L], the protein stability index came out at 3.77.
Turning to FQTRQESTSMSAELKMRAIQAEER [M7S], the protein stability index came to 4.27.
In the case of FQTRQENTSMSAELKMRAIQAEER [M7N] it was 3.71.
Regarding FQTRQEYTSMSAELKMRAIQAEER [M7Y], the protein stability index was determined as 3.31.
As for FQTRQETTSMSAELKMRAIQAEER [M7T], the protein stability index stood at 4.61.
In the case of FQTRQERTSMSAELKMRAIQAEER [M7R] it was 4.26; in that of FQTRQEQTSMSAELKMRAIQAEER [M7Q], 4.14.
In the case of FQTRQEWTSMSAELKMRAIQAEER [M7W] it was 2.68; in that of FQTRQEPTSMSAELKMRAIQAEER [M7P], 3.71.
In the case of FQTRQEMHSMSAELKMRAIQAEER [T8H] it was 4.38; in that of FQTRQEMQSMSAELKMRAIQAEER [T8Q], 4.28.
Turning to FQTRQEMYSMSAELKMRAIQAEER [T8Y], the protein stability index amounted to 2.69.
In the case of FQTRQEMSSMSAELKMRAIQAEER [T8S] it was 3.72.
On to FQTRQEMGSMSAELKMRAIQAEER [T8G], for which the protein stability index amounted to 4.33.
For the variant FQTRQEMASMSAELKMRAIQAEER [T8A], the protein stability index amounted to 3.85.
In the case of FQTRQEMMSMSAELKMRAIQAEER [T8M] it was 3.47; in that of FQTRQEMVSMSAELKMRAIQAEER [T8V], 3.76.
In the case of FQTRQEMDSMSAELKMRAIQAEER [T8D] it was 4.16; in that of FQTRQEMRSMSAELKMRAIQAEER [T8R], 4.26.
In the case of FQTRQEMKSMSAELKMRAIQAEER [T8K] it was 3.86.
With FQTRQEMFSMSAELKMRAIQAEER [T8F], the protein stability index is 2.19.
In the case of FQTRQEMCSMSAELKMRAIQAEER [T8C] it was 3.11; in that of FQTRQEMPSMSAELKMRAIQAEER [T8P], 3.94; in that of FQTRQEMWSMSAELKMRAIQAEER [T8W], 1.34.
For FQTRQEMLSMSAELKMRAIQAEER [T8L], the protein stability index was 3.79.
In the case of FQTRQEMNSMSAELKMRAIQAEER [T8N] it was 3.92; in that of FQTRQEMESMSAELKMRAIQAEER [T8E], 4.57.
Consider FQTRQEMISMSAELKMRAIQAEER [T8I], for which the protein stability index is 3.8.
In the case of FQTRQEMTSMSDELKMRAIQAEER [A12D] it was 4.26.
